Reference: article PMC4109836, “Analysis of the co-operative interaction between the allosterically regulated proteins GK and GKRP using tryptophan fluorescence” (Biochemical Journal, 2014)
Numbering of substitutions follows the chain as printed. In names and notes the source's numbering stands. Where two headings read alike, the source gives them in different places.

Assays:
[1] = biological target: T1, GK-T65W/W99R/W167F/W257F (Homo sapiens, UniProt P35557, T65W/W167F/W257F/W99R); test: GKA and glucose binding by GK-T65W/W99R/W167F/W257F measured by TF; details: 25°C
T1 construct: GST (cleaved yes); made in house; host or cells: Escherichia coli
T1 sequence (P35557 1-465 T65W/W99R/W167F/W257F): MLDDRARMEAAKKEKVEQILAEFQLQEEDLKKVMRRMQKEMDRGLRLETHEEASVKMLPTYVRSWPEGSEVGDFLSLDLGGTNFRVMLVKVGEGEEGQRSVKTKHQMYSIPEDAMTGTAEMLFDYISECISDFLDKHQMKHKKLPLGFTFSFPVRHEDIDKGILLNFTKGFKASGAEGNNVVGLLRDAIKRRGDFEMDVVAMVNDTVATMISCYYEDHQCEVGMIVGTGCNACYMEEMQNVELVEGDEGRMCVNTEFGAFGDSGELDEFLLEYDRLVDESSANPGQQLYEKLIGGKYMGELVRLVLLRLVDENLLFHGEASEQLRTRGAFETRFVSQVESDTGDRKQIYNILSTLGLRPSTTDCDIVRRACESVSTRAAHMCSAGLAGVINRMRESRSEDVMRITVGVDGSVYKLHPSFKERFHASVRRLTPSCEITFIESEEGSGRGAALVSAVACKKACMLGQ

[2] = biological target: T2, GKRP-WT (Homo sapiens, UniProt P35557+Q14397, W167F/W257F/W99R); test: Titration of GKRP-WT with GK-W99R/W167F/W257F (GK–GKRP complex assembly) by TF; type: binding; details: for Kd: read-out: S0.5 of GK;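 for all read-outs here: tryptophan fluorescence of GKRP titrated with GK, excitation 295 nm, emission read at 340 nm, phosphate buffer pH 7.2, Hill equation fitting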
T2 construct: FLAG; GST (cleaved yes); made in house; host or cells: Escherichia coli
T2 sequence (Q14397 1-625): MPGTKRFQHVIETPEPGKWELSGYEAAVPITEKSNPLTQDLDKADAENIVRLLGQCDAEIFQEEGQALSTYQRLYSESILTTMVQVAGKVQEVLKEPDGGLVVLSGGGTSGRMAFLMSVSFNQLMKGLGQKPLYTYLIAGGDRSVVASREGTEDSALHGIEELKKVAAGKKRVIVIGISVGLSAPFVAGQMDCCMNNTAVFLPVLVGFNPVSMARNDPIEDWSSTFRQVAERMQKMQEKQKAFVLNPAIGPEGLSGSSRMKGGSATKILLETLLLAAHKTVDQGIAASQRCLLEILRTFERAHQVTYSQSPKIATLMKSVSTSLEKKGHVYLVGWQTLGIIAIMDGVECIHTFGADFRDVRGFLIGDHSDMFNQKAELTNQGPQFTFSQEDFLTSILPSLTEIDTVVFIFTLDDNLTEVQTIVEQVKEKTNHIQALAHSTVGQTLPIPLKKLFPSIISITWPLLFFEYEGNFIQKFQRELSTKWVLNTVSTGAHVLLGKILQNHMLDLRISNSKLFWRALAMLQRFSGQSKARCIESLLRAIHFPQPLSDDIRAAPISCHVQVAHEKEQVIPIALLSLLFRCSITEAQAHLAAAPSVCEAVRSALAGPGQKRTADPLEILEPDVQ
T2 sequence (P35557 1-465 W99R/W167F/W257F): T1 sequence (P35557 1-465 T65W/W99R/W167F/W257F) with W65T

[3] = D-glucose titration in the presence of GKA (20 μM)
[4] = GK titration with 20 μM GKA, 20°C
[5] = GK titration with 500 μM F1P, 20°C
[6] = GK titration with 500 μM F6P, sigmoidal fit, 20°C
[7] = GK titration with 500 μM F6P, simple saturation fit (H = 1)
[8] = GK titration with 100 mM D-glucose and 20 μM GKA, 20°C
[9] = GK titration with 100 mM D-glucose and 500 μM F1P, 20°C
[10] = GK titration with 100 mM D-glucose and 500 μM F6P, 20°C
[11] = GK titration with 100 mM D-glucose, 20°C
[12] = GK titration, no further agent, sigmoidal fit, 20°C
[13] = GK titration, no further agent, simple saturation fit (H = 1)

OC[C@H]1OC(O)[C@H](O)[C@@H](O)[C@@H]1O (stereo partly drawn) [D-Glucose, D-glucose]
H [1, 3]: 1
Kd [1, 3]: 740 µM
H ([1]; D-glucose titration): 1
Kd ([1]; D-glucose titration): 4600 µM

B1: GK-W99R/W167F/W257F: tryptophan residue-free, non-fluorescent recombinant human β-cell GK made for the present study (protein)
chain: T1 sequence (P35557 1-465 T65W/W99R/W167F/W257F) with W65T
modifications: left off: GST, end not stated, cleaved
notes: tryptophan residue-free, non-fluorescent recombinant human β-cell GK made for the present study
H [2, 4]: 3.4
ΔF [2, 4]: 0.42
Kd [2, 4]: 2.77 µM
H [2, 5]: 2.8
ΔF [2, 5]: 0.32
Kd [2, 5]: 2.68 µM
H [2, 6]: 1.71
ΔF [2, 6]: 0.31
Kd [2, 6]: 1.2 µM
H ([2]; GK titration with 500 μM F6P, simple saturation fit): 1
ΔF [2, 7]: 0.43
Kd [2, 7]: 1.84 µM
H [2, 8]: 3.2
ΔF [2, 8]: 0.42
Kd [2, 8]: 4.75 µM
H [2, 9]: 2.25
Kd [2, 9]: 3.3 µM
H [2, 10]: 2.83
ΔF [2, 10]: 0.35
Kd [2, 10]: 2.43 µM
H [2, 11]: 2.78
ΔF [2, 11]: 0.42
Kd [2, 11]: 2.56 µM
H [2, 12]: 1.74
ΔF [2, 12]: 0.29
Kd ([2]; GK titration, no further agent, sigmoidal fit, 20°C, listed as GK): ~1.2 µM
Kd [2, 12]: 1.22 µM
H ([2]; GK titration, no further agent, simple saturation fit): 1
ΔF [2, 13]: 0.39
Kd [2, 13]: 1.85 µM
maximal ΔTF value of GKRP-WT ([2]; range depending on the assay conditions): 0.29–0.42
increase of the TF of GKRP-WT ([2]; saturating GK (5 μM), 0.3 μM GKRP): 29%
S0.5 value of GK with GKRP-WT lower than with GKRP-P446L (on average) ([2]; with and without F6P): 35%
